Data from publication PMC3735830 (Nature structural & molecular biology, 2013).
One block for each binder: values may come before it.

Columns and labels:
[1] = biological target: T1, Mcm2 (S. cerevisiae, UniProt P29469 1-868); experiment: co-IP
T1 sequence: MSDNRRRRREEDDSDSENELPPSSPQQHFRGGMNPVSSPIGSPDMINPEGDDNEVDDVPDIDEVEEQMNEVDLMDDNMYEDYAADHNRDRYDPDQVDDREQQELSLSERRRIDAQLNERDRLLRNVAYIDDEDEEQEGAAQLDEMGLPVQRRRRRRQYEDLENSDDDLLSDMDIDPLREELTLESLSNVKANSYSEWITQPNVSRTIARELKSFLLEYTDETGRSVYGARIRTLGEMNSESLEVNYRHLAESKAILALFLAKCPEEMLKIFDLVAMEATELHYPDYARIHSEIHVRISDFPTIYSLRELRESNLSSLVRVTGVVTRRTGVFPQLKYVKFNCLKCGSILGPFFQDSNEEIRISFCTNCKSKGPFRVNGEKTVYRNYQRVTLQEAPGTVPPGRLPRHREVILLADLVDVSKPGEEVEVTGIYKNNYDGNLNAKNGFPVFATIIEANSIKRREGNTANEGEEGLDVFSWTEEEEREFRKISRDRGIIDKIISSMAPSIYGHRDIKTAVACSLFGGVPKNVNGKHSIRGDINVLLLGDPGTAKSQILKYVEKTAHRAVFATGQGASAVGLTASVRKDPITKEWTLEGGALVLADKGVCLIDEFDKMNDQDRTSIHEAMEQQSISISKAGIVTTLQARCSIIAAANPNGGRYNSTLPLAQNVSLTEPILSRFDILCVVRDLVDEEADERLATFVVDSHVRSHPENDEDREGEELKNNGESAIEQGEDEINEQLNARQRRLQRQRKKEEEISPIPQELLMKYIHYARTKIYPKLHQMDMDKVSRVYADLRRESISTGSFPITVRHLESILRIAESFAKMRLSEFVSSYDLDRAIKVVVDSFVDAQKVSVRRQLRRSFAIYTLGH

[2] = biological target: T2, Mcm4 (S. cerevisiae, UniProt P30665 1-933); experiment: cryo-EM structure
T2 sequence: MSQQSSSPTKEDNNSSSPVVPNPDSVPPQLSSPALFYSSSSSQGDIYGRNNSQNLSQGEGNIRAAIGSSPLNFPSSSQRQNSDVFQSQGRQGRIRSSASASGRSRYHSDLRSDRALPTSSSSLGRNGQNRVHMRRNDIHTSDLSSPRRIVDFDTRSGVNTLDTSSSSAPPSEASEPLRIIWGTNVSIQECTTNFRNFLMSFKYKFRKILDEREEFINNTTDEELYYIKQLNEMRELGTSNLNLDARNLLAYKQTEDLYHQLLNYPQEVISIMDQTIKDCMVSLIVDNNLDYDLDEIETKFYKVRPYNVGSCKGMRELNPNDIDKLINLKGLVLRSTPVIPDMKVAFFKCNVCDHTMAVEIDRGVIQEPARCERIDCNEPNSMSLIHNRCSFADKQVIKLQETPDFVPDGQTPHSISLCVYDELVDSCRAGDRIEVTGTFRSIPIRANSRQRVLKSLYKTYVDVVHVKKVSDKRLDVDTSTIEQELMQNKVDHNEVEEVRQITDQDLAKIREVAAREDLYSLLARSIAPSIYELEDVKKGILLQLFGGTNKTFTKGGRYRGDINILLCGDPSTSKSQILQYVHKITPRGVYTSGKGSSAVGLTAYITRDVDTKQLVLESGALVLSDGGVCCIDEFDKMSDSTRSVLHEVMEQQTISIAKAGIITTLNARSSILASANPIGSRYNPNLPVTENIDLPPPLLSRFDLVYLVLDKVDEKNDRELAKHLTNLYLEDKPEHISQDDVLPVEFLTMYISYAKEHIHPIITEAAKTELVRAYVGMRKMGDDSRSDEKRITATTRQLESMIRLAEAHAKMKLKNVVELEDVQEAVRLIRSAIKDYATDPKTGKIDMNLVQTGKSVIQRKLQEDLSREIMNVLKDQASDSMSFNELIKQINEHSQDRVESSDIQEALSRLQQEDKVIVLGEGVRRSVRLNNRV

[3] = biological target: Mcm3 (S. cerevisiae, UniProt P24279 1-971); experiment: cryo-EM structure
Sequence of Mcm3 (P24279 whole entry): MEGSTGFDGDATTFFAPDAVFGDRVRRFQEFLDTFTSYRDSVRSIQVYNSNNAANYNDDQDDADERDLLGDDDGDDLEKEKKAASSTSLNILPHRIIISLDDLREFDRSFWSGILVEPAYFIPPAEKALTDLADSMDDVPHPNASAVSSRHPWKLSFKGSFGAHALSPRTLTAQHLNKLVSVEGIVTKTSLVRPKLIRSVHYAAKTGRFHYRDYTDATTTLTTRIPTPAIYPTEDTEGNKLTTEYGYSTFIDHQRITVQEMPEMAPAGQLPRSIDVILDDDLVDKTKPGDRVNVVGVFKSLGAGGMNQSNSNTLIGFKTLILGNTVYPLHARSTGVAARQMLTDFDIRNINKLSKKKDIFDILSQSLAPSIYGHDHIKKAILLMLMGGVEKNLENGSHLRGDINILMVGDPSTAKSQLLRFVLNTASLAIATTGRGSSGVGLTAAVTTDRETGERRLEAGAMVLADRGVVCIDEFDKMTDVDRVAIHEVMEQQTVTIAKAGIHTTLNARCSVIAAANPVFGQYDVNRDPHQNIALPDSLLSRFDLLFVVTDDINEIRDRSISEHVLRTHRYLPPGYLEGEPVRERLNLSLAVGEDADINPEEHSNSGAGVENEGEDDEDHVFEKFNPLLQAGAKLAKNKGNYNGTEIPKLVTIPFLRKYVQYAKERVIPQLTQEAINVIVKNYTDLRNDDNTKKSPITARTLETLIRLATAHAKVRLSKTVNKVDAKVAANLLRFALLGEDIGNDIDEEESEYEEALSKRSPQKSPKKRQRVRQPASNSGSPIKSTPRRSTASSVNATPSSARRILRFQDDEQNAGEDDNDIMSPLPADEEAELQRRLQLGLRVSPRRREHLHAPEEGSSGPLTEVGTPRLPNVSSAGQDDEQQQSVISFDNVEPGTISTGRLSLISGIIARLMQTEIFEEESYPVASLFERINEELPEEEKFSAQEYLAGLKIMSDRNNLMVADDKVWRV

[4] = biological target: T3, Orc1 (S. cerevisiae, UniProt P54784 1-914); experiment: cryo-EM structure
T3 sequence: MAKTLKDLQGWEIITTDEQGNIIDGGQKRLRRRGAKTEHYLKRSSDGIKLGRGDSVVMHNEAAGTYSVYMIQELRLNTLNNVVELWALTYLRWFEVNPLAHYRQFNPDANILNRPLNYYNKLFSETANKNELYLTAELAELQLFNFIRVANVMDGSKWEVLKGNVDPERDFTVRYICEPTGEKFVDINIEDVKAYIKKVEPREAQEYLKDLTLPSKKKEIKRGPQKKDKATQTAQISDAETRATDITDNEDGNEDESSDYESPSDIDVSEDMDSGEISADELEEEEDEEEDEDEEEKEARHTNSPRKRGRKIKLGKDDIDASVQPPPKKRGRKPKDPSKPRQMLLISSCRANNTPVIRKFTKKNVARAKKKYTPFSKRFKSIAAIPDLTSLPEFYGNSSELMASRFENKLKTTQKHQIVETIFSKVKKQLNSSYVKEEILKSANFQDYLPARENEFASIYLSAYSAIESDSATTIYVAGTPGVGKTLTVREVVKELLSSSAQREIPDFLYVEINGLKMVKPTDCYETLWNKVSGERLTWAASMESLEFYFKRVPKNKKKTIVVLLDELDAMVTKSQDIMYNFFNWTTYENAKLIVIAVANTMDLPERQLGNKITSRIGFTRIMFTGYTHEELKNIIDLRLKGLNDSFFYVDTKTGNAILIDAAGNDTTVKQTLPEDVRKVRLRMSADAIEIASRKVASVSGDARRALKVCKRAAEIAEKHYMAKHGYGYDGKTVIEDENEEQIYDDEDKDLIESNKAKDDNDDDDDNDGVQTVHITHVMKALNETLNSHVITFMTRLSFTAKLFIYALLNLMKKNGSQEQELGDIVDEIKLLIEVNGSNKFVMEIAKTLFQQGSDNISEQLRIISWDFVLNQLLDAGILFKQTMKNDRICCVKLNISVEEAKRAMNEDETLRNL

[5] = biological target: Mcm6 (S. cerevisiae, UniProt P53091 1-1017); experiment: cryo-EM structure
Sequence of Mcm6 (P53091 whole entry): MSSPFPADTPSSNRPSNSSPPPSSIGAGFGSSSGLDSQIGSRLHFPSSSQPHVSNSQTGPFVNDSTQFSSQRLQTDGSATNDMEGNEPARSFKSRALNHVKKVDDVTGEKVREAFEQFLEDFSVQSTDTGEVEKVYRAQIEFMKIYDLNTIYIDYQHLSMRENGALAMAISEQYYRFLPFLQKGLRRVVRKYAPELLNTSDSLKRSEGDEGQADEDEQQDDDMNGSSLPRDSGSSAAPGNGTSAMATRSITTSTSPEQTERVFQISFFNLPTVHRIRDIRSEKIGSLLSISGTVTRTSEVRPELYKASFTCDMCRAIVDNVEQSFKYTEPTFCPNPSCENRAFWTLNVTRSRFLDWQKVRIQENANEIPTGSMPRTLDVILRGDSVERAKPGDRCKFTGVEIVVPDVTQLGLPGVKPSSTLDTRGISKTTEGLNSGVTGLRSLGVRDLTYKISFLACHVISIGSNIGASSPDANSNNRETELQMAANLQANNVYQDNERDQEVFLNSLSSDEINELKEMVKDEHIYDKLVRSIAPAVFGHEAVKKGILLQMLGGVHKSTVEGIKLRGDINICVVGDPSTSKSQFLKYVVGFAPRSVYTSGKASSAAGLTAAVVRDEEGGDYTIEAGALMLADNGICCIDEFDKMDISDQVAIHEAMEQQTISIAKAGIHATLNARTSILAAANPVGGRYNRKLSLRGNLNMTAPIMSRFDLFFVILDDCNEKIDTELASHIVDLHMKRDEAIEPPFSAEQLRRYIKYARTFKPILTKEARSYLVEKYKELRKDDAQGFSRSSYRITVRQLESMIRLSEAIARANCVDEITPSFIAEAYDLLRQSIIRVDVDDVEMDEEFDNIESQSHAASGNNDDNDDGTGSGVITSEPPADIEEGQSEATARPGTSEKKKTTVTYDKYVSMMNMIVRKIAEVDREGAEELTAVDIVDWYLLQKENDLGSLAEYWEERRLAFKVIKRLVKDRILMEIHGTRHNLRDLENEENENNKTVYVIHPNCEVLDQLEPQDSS

[6] = biological target: T4, Orc3 (S. cerevisiae, UniProt P54790 1-616); experiment: cryo-EM structure
T4 sequence: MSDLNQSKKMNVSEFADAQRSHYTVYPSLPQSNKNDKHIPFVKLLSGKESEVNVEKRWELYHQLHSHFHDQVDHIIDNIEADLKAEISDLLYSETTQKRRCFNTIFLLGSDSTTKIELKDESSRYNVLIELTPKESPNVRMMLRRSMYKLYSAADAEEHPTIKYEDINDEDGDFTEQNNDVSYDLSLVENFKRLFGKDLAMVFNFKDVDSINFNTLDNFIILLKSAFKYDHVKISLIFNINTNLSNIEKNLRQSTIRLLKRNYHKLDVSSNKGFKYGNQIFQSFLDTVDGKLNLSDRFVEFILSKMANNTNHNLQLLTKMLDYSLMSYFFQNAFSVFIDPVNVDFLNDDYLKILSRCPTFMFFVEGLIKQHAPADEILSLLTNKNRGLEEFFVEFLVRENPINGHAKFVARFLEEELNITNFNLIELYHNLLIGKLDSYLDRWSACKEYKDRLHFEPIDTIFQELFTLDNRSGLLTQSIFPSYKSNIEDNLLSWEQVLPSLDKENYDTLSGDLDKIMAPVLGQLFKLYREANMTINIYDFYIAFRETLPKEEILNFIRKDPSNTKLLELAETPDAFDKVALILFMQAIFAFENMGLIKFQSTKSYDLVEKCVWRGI

B1: Mcm7 (natural protein)
chain: MSAALPSIQLPVDYNNLFNEITDFLVTFKQDTLSSDATRNENEDENLDAENIEQHLLEKGPKYMAMLQKVANRELNSVIIDLDDILQYQNEKFLQGTQADDLVSAIQQNANHFTELFCRAIDNNMPLPTKEIDYKDDVLDVILNQRRLRNERMLSDRTNEIRSENLMDTTMDPPSSMNDALREVVEDETELFPPNLTRRYFLYFKPLSQNCARRYRKKAISSKPLSVRQIKGDFLGQLITVRGIITRVSDVKPAVEVIAYTCDQCGYEVFQEVNSRTFTPLSECTSEECSQNQTKGQLFMSTRASKFSAFQECKIQELSQQVPVGHIPRSLNIHVNGTLVRSLSPGDIVDVTGIFLPAPYTGFKALKAGLLTETYLEAQFVRQHKKKFASFSLTSDVEERVMELITSGDVYNRLAKSIAPEIYGNLDVKKALLLLLVGGVDKRVGDGMKIRGDINVCLMGDPGVAKSQLLKAICKISPRGVYTTGKGSSGVGLTAAVMKDPVTDEMILEGGALVLADNGICCIDEFDKMDESDRTAIHEVMEQQTISISKAGINTTLNARTSILAAANPLYGRYNPRLSPLDNINLPAALLSRFDILFLMLDIPSRDDDEKLAEHVTYVHMHNKQPDLDFTPVEPSKMREYIAYAKTKRPVMSEAVNDYVVQAYIRLRQDSKREMDSKFSFGQATPRTLLGIIRLSQALAKLRLADMVDIDDVEEALRLVRVSKESLYQETNKSKEDESPTTKIFTIIKKMLQETGKNTLSYENIVKTVRLRGFTMLQLSNCIQEYSYLNVWHLINEGNTLKFVDDGTMDTDQEDSLVSTPKLAPQTTASANVSAQDSDIDLQDA
binding result [1]: binds
binding result [2]: binds
binding result [3]: binds

B3: Cdt1 (natural protein)
chain: MSGTANSRRKEVLRVPVIDLNRVSDEEQLLPVVRAILLQHDTFLLKNYANKAVLDALLAGLTTKDLPDTSQGFDANFTGTLPLEDDVWLEQYIFDTDPQLRFDRKCRNESLCSIYSRLFKLGLFFAQLCVKSVVSSAELQDCISTSHYATKLTRYFNDNGSTHDGADAGATVLPTGDDFQYLFERDYVTFLPTGVLTIFPCAKAIRYKPSTMATTDNSWVSIDEPDCLLFHTGTLLARWSQGMHTTSPLQIDPRANIVSLTIWPPLTTPISSKGEGTIANHLLEQQIKAFPKVAQQYYPRELSILRLQDAMKFVKELFTVCETVLSLNALSRSTGVPPELHVLLPQISSMMKRKIVQDDILKLLTIWSDAYVVELNSRGELTMNLPKRDNLTTLTNKSRTLAFVERAESWYQQVIASKDEIMTDVPAFKINKRRSSSNSKTVLSSKVQTKSSNANALNNSRYLANSKENFMYKEKMPDSQANLMDRLRERERRSAALLSQRQKRYQQFLAMKMTQVFDILFSLTRGQPYTETYLSSLIVDSLQDSNNPIGTKEASEILAGLQGILPMDISVHQVDGGLKVYRWNSLDKNRFSKLLQIHKSKQQD
binding result [5]: binds

Further lines, results first:

binding result [4]: binds
B2: Orc4 (natural protein)
chain: MTISEARLSPQVNLLPIKRHSNEEVEETAAILKKRTIDNEKCKDSDPGFGSLQRRLLQQLYGTLPTDEKIIFTYLQDCQQEIDRIIKQSIIQKESHSVILVGPRQSYKTYLLDYELSLLQQSYKEQFITIRLNGFIHSEQTAINGIATQLEQQLQKIHGSEEKIDDTSLETISSGSLTEVFEKILLLLDSTTKTRNEDSGEVDRESITKITVVFIFDEIDTFAGPVRQTLLYNLFDMVEHSRVPVCIFGCTTKLNILEYLEKRVKSRFSQRVIYMPQIQNLDDMVDAVRNLLTVRSEISPWVSQWNETLEKELSDPRSNLNRHIRMNFETFRSLPTLKNSIIPLVATSKNFGSLCTAIKSCSFLDIYNKNQLSNNLTGRLQSLSDLELAILISAARVALRAKDGSFNFNLAYAEYEKMIKAINSRIPTVAPTTNVGTGQSTFSIDNTIKLWLKKDVKNVWENLVQLDFFTEKSAVGLRDNATAAFYASNYQFQGTMIPFDLRSYQMQIILQELRRIIPKSNMYYSWTQL

binding result [4]: binds
binding result [6]: binds
B4: Cdc6 (natural protein)
chain: MSAIPITPTKRIRRNLFDDAPATPPRPLKRKKLQFTDVTPESSPEKLQFGSQSIFLRTKALLQKSSELVNLNSSDGALPARTAEYEQVMNFLAKAISEHRSDSLYITGPPGTGKTAQLDMIIRQKFQSLPLSLSTPRSKDVLRHTNPNLQNLSWFELPDGRLESVAVTSINCISLGEPSSIFQKIFDSFQDLNGPTLQIKNMQHLQKFLEPYHKKTTFVVVLDEMDRLLHANTSETQSVRTILELFLLAKLPTVSFVLIGMANSLDMKDRFLSRLNLDRGLLPQTIVFQPYTAEQMYEIVIQKMSSLPTIIFQPMAIKFAAKKCAGNTGDLRKLFDVLRGSIEIYELEKRFLLSPTRGSLNSAQVPLTPTTSPVKKSYPEPQGKIGLNYIAKVFSKFVNNNSTRTRIAKLNIQQKLILCTIIQSLKLNSDATIDESFDHYIKAITKTDTLAPLQRNEFLEICTILETCGLVSIKKTKCKGKTKRFVDKIDVDLDMREFYDEMTKISILKPFLH
